Laboratory results: patent US7132401B2, “Beta-secretase substrates and uses thereof” (Merck & Co., Inc., priority 2002, dated 2006)

Target: β-secretase (Homo sapiens, UniProt P56817)
Experiment: β-secretase cleavage of peptide substrates and peptide libraries followed by LC/MS
Type: biochemical
Conditions: for Relative rates of hydrolysis: hydrolysis by β-secretase, Swedish mutant EVNLDAEF (SEQ ID NO: 257) = 1, each peptide 1 μM, pH 4.5, 37° C.; for rate of cleavage (depletion of full length substrate) of P1′ peptide library components: P1′ peptide library treated with β-secretase, FIG. 2; for rate of hydrolysis by β-secretase, times faster than the Swedish mutant sequence (SEQ ID NO: 257): relative to Swedish mutant APP sequence, peptides incubated simultaneously with β-secretase; for formation of C-terminal cleavage products from the P1′ peptide library: FIG. 3
Method: Following synthesis and purification, each of the eight peptide libraries was incubated with the enzyme β-secretase and the relative rates of cleavage of each individual peptide library component was followed with liquid chromatography/mass spectrometry (LC/MS) with analysis of both the depletion of the full length peptide substrate, as well as the formation of peptide cleavage fragments. The enzyme β-secretase was incubated at concentrations ranging from 5 to 50 nM at pH 4.5 with each of the peptide libraries and/or mixtures of synthetic peptide substrates.
The mixtures of substrates and enzyme were incubated in an Agillent Technology 1100 series liquid chromatograph with a temperature controlled autosampler. The temperature for all β-secretase enzymatic assays was held constant at 37° C. A 100 μl aliquot of each reaction mixture was injected onto a 1×50 mm C18 reverse phase 1c column (Metachem Technologies Inc., Torrance, Calif.) every two hours to monitor reaction progress. After injection, a highly optimized solvent gradient was delivered to the column to maximize resolving power for each of the substrate library components. […] After the LC/MS run, the data were processed by selected-ion chromatograms for each of the peptide substrate library components by extracting 0.5 Da mass windows surrounding the calculated mass values of each of the peptides.

Sequence of β-secretase (P56817 46-501): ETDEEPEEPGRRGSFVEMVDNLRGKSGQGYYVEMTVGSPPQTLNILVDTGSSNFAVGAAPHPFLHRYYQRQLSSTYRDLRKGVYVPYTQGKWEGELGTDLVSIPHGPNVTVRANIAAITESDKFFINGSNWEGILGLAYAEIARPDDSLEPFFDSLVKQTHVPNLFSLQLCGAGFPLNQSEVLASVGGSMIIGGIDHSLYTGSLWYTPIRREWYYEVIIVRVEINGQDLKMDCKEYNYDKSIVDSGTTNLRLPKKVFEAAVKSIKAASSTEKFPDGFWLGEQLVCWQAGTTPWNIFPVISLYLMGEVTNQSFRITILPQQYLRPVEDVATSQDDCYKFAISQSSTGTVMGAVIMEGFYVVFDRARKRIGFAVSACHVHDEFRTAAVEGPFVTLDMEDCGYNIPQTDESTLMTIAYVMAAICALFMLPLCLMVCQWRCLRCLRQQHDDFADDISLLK

Row | Substance | Relative rates of hydrolysis | rate of cleavage (depletion of full length substrate) of P1′ peptide library components | rate of hydrolysis by β-secretase, times faster than the Swedish mutant sequence (SEQ ID NO: 257) | formation of C-terminal cleavage products from the P1′ peptide library
1 | EVNFAAEF (Beta-Secretase Cleavage Site) | 17 |  |  | 
2 | P1′=Gly: P1′ peptide library component: Swedish mutant APP 8-mer with Gly at P1′ (EVNLGAEF) |  | not cleaved |  | 
3 | P1′=Glu: P1′ peptide library component: Swedish mutant APP 8-mer with Glu at P1′ (EVNLEAEF) |  | most rapidly hydrolyzed |  | more rapid and comparable rates of formation
4 | EVNLDAEF (Beta-Secretase Cleavage Site) [8-mer of Swedish mutant APP around the β-secretase cleavage site, reference compound] | 1 | intermediate |  | less conducive to β-secretase hydrolysis than either Glu or Ala

The next lines start with results.

Row | Relative rates of hydrolysis | rate of cleavage (depletion of full length substrate) of P1′ peptide library components | rate of hydrolysis by β-secretase, times faster than the Swedish mutant sequence (SEQ ID NO: 257) | Substance | formation of C-terminal cleavage products from the P1′ peptide library
5 | 17 |  |  | EVNFEAEF (Beta-Secretase Cleavage Site) | 
6 | 60 |  | 60 times | EVNFEVEF (Beta-Secretase Cleavage Site) | 
7 |  | not cleaved |  | P1′=Pro: P1′ peptide library component: Swedish mutant APP 8-mer with Pro at P1′ (EVNLPAEF) | 
8 | 30 |  | roughly 30 times | EVNFAVEF (Beta-Secretase Cleavage Site) | 
